Measured values published in publication PMC5892879, “Structures of the Mycobacterium tuberculosis GlpX protein (class II fructose-1,6-bisphosphatase): implications for the active oligomeric state, catalytic mechanism and citrate inhibition” (Acta Crystallographica. Section D, Structural Biology, 2018).

Columns and labels:
Assay in all cases: crystal structure
[1] = biological target: Mycobacterium tuberculosis class II fructose-1,6-bisphosphatase (GlpX protein), T84A variant (Mycobacterium tuberculosis) (UniProt P9WN21)
[2] = biological target: Mycobacterium tuberculosis class II fructose-1,6-bisphosphatase (GlpX protein), T84S variant (Mycobacterium tuberculosis) (UniProt P9WN21)
[3] = biological target: Mycobacterium tuberculosis class II fructose-1,6-bisphosphatase (GlpX protein), wild type (Mycobacterium tuberculosis) (UniProt P9WN21)

“Mycobacterium tuberculosis class II fructose-1,6-bisphosphatase (GlpX protein), T84A variant (from UniProt P9WN21) (enzyme)” was tested. Which stoichiometry N [1] did it give?
Its stoichiometry N is 4.

How did the stoichiometry N [2] turn out when “Mycobacterium tuberculosis class II fructose-1,6-bisphosphatase (GlpX protein), T84S variant (from UniProt P9WN21) (enzyme)” was run?
Its stoichiometry N is 4.

For “Mycobacterium tuberculosis class II fructose-1,6-bisphosphatase (GlpX protein), wild type (from UniProt P9WN21 35-362) (enzyme)”, which stoichiometry N [3] is on record?
Its stoichiometry N is 4.
